Measured values as given in US20240360229A1.

Target: human CCR8 (human) (UniProt P51685)
Assay: cell-based or functional assay

human CCR8 (human), sequence (P51685 whole entry): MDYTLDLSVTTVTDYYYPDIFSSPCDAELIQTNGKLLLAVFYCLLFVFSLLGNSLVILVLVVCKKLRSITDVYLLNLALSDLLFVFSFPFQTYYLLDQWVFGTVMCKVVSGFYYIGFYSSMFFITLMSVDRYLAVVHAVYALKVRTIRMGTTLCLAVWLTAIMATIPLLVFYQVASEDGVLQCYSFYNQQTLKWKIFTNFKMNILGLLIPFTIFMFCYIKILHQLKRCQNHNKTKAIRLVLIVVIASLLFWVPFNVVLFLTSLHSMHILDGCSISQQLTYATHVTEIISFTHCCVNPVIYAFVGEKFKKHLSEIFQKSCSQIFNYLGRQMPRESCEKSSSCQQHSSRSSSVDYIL

IC50 of inhibition of CCL1-mediated activation of CCR8 (Ca2+ influx, FLIPR, CHO/hCCR8.Gna15 cells): 8.4 nM
B1: control antibody (BD, Cat. #433H) (antibody, from another filing, V domains shown)
VH: EVQLVETGGGLVQPKGSLRLSCAASGFPFNTFAMNWVRQAPGKGLEWLARIRSKSNNYATYYADSVKDRFTISRDDSRRMLYLLMNNVKFEDTAIYYCVRGKENNYGYAMDYWGQGTSVTVSS
VL: DIVMTQAAPSVPVTPGESVSISCRSSQSLLHSNGNTYLYWFLQRPGQSPQLLIYRMSNLASGVPDRFSGSGSGTAFTLRISRVEAEDVGVYYCMQHLEYPFTFGIGTKLELKR
